Experimental findings from PMC314469, “Protein Interaction Networks by Proteome Peptide Scanning” (PLoS Biology, 2004) are described below.

Assay in all cases: SPOT array
In assay [1] the target is T1, Boi1 SH3 (BOI1_YEAST), P38041.
T1 chain: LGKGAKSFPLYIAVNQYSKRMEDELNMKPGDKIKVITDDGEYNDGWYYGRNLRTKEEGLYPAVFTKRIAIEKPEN

The target of assay [2] is T2, Boi2 SH3 (BOI2_YEAST), P39969.
T2 chain: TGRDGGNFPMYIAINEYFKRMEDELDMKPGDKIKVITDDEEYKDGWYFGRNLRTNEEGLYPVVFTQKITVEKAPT

In assay [3] the target is T3, Rvs167 SH3 (RV167_YEAST), P39743.
T3 chain: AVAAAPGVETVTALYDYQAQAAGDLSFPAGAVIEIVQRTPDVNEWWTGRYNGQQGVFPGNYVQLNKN

The target in assay [4] is T4, Yfr024 SH3 (LSB3_YEAST), P43603.
T4 chain: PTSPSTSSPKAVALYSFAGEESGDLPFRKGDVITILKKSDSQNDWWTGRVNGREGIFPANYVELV

In assay [5] the target is T5, Yhr016c SH3 (YSC84_YEAST), P32793.
T5 chain: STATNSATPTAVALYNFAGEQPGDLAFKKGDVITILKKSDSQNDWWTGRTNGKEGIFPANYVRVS

As to DHKPENPIRTFKDL [YBL042C 90-103], the normalised SPOT signal, Boehringer light units (BLU); mean over the file's lines of this peptide in assay [1] was 167; in assay [2] it was 122; in assay [3], 120; in assay [4] it was 238; in assay [5], 175.
Taken in the same sequence, the figures for DFTPVEPSKMREYI [YBR202W 629-642] were 64.2, 59.7, 277, 15.3 and 179.
Turning to DKLPEGPVKSLEGA [YNL134C 130-143], the normalised SPOT signal, Boehringer light units (BLU); mean over the file's lines of this peptide in assay [1] was determined as 35.5; in assay [2], 73.3; in assay [3] it was 55.7; in assay [4] it was 87.8; in assay [5], 89.5.
The like results for DERPFRPKRTSRSA [YGL165C 149-162] were, in that order, 632, 169, 111, 7440 and 992.
As for DFRPRMPKRQRIPP [YMR125W 18-31], the normalised SPOT signal, Boehringer light units (BLU); mean over the file's lines of this peptide came out at 776 in assay [1]; 96.7 in assay [2]; 87.3 in assay [3]; 835 in assay [4]; 211 in assay [5].
The like results for DLAPKWPKKTVSNE [YPL175W 432-445] were, in that order, 48.2, 14.6, 7.2, 1590 and 110.
In the case of DLPPEPPTKLSDSF [YNL284C-B 1135-1148], the normalised SPOT signal, Boehringer light units (BLU); mean over the file's lines of this peptide was 75 in assay [1]; 30.6 in assay [2]; 30.9 in assay [3]; 56.5 in assay [4]; 105 in assay [5].
For the molecule DIHPSLPVRTRFAP [YOL033W 38-51], the normalised SPOT signal, Boehringer light units (BLU); mean over the file's lines of this peptide came to 6780 in assay [1]; 30.2 in assay [2]; 943 in assay [3]; 24600 in assay [4]; 5090 in assay [5].
On to DESPIDPSKAPKVP [YGR130C 350-363], for which the normalised SPOT signal, Boehringer light units (BLU); mean over the file's lines of this peptide in assay [1] was 110; in assay [2], 11.7; in assay [3], 0; in assay [4] it was 0; in assay [5], 120.
On to DLKPAYPGRSAHVV [YJL127C 172-185], for which the normalised SPOT signal, Boehringer light units (BLU); mean over the file's lines of this peptide in assay [1] was 20.7; in assay [2], 77.4; in assay [3], 31.5; in assay [4] it was 8830; in assay [5], 1390.
For the molecule DKLPFSPIKEKKLK [YOR335C 774-787], the normalised SPOT signal, Boehringer light units (BLU); mean over the file's lines of this peptide in assay [1] stood at 466; in assay [2] it was 39.8; in assay [3], 118; in assay [4], 64.1; in assay [5], 156.
On to DETPFFPDKIQKSF [YPR060C 81-94], for which the normalised SPOT signal, Boehringer light units (BLU); mean over the file's lines of this peptide stood at 37.6 in assay [1]; 16.5 in assay [2]; 23.6 in assay [3]; 164 in assay [4]; 0 in assay [5].
The like results for DLPPKFPEKPVHLV [YDR444W 186-199] were, in that order, 0, 25.7, 90.9, 10300 and 183.
With DGRPHSPLRARSAT [YFL007W 51-64], the normalised SPOT signal, Boehringer light units (BLU); mean over the file's lines of this peptide in assay [1] stood at 1690; in assay [2], 21.9; in assay [3], 75.7; in assay [4], 1500; in assay [5], 193.
In the case of DLNPDAPPKPQLIP [YPL057C 43-56], the normalised SPOT signal, Boehringer light units (BLU); mean over the file's lines of this peptide in assay [1] came out at 96.1; in assay [2], 41.5; in assay [3] it was 11; in assay [4] it was 88.2; in assay [5], 65.9.
